According to PMC3894356:

Columns and labels:
[1] = target: human C-domain ACE (tACEΔ36-g13sol) R186H (human)
[2] = target: human tACEΔ36-g13sol (C-domain of angiotensin-I-converting enzyme) (human)
[3] = target: human C-domain ACE (tACEΔ36-g13sol) R522Q (human)
[4] = target: human C-domain ACE (tACEΔ36-g13sol) R522K (human)

B1: Angiotensin I (Asp-Arg-Val-Tyr-Ile-His-Pro-Phe-His-Leu) (peptide)
peptide: DRVYIHPFHL
[1]
  Km of angiotensin I cleavage, ITC kinetic assay (progress curve), 37 °C, 0 mM NaCl, 50 mM TAPSO pH 7.5, 10 μM ZnSO4: 0.085 mM
  Km of angiotensin I cleavage, ITC kinetic assay (progress curve), 37 °C, 20 mM NaCl, 50 mM TAPSO pH 7.5, 10 μM ZnSO4: 0.095 mM
[2]
  Km of angiotensin I cleavage, ITC kinetic assay (progress curve), 37 °C, 0 mM NaCl, 50 mM TAPSO pH 7.5, 10 μM ZnSO4: 0.049 mM
  Km of angiotensin I cleavage, ITC kinetic assay (progress curve), 37 °C, 20 mM NaCl, 50 mM TAPSO pH 7.5, 10 μM ZnSO4: 0.036 mM
[3]
  Km of angiotensin I cleavage, ITC kinetic assay (progress curve), 37 °C, 0 mM NaCl, 50 mM TAPSO pH 7.5, 10 μM ZnSO4: 0.092 mM
  Km of angiotensin I cleavage, ITC kinetic assay (progress curve), 37 °C, 20 mM NaCl, 50 mM TAPSO pH 7.5, 10 μM ZnSO4: 0.077 mM
[4]
  Km of angiotensin I cleavage, ITC kinetic assay (progress curve), 37 °C, 0 mM NaCl, 50 mM TAPSO pH 7.5, 10 μM ZnSO4: 0.13 mM
  Km of angiotensin I cleavage, ITC kinetic assay (progress curve), 37 °C, 20 mM NaCl, 50 mM TAPSO pH 7.5, 10 μM ZnSO4: 0.119 mM
